# Experimental data reported in PMC10384689.
# B1: EcHpaBC (E. coli 4HPA3H; HpaB + HpaC) (Escherichia coli) (protein)
# chain: MKPEDFRASTQRPFTGEEYLKSLQDGREIYIYGERVKDVTTHPAFRNAAASVAQLYDALHKPEMQDSLCWNTDTGSGGYTHKFFRVAKSADDLRHERDAIAEWSRLSYGWMGRTPDYKAAFGCALGGTPGFYGQFEQNARNWYTRIQETGLYFNHAIVNPPIDRHLPTDKVKDVYIKLEKETDAGIIVSGAKVVATNSALTHYNMIGFGSAQVMGENPDFALMFVAPMDADGVKLISRASYEMVAGATGSPYDYPLSSRFDENDAILVMDNVLIPWENVLLYRDFDRCRRWTMEGGFARMYPLQACVRLAVKLDFITALLKKSLECTGTLEFRGVQADLGEVVAWRNTFWALSDSMCSEATPWVNGAYLPDHAALQTYRVLAPMAYAKIKNIIERNVTSGLIYLPSSARDLNNPQIDQYLAKYVRGSNGMDHVQRIKILKLMWDAIGSEFGGRHELYEINYSGSQDEIRLQCLRQAQSSGNMDKMMAMVDRCLSEYDQNGWTVPHLHNNDDINMLDKLLK
# Substrate: Oc1ccc(/C=C/c2cc(O)cc(O)c2)cc1
# Assay: purified protein
# Conditions: PBS pH 7.4, 30 °C, 10 min, 10 uM FAD, 1 mM NADH, 1 uM HpaB, 1 uM HpaC, apparent
protein,measurement,value
B1,Km,0.67 ± 0.12 mM
same,kcat,0.0135 s⁻¹
same,kcat/Km,20 M⁻¹ s⁻¹
